Data published in IntAct's records for PubMed 19366670.

Biological target: T1, asia_bpt4 asiA (UniProt P32267)
T1 sequence: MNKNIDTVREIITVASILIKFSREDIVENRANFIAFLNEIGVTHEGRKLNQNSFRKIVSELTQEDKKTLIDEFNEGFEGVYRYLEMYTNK

Substance | effect of a mutation on the interaction
DNA-directed RNA polymerase subunit beta (Escherichia coli (strain K12)) (from UniProt P0A8V2) I905A;F906A | decreasing interaction strength
DNA-directed RNA polymerase subunit beta (Escherichia coli (strain K12)) (from UniProt P0A8V2) G907K | decreasing interaction strength
